Assay [1] deals with T1, human Siglec 15-HIS tagged recombinant protein (human, UniProt Q6ZMC9 20-263).
T1 construct: Recombinant soluble protein; also called rhSiglec15 His; human Siglec15-HIS tagged protein; not shown: HIS tag
T1 sequence (looked up): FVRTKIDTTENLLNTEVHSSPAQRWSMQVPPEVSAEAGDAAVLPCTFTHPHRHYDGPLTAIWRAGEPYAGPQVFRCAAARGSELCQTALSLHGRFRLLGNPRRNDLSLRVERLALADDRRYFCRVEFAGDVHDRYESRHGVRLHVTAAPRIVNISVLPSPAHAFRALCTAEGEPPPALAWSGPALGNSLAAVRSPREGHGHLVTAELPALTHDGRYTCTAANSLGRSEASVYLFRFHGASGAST
In words: ELISA; His-tagged Siglec15 coated, IgG titrated, anti-hFc HRP. As to the method: (§1) An ELISA assay was developed to determine the EC50 of anti-Siglec15 IgG antibodies. Briefly, a 384 well plate was immobilized with human Siglec 15-HIS tagged recombinant protein at a final concentration of 2 ug/mL in 1×PBS in total volume of 25 uL per well. The plate was incubated overnight at 4° C. followed by blocking with 80 uL of superblock per well for 1 hour. Titration of purified anti-Siglec15 IgG was performed, starting at 200 nM 2-fold serial dilution, then 25 uL was added to the human Siglec15 immobilized wells and incubated for 1 hour with shaking. The Siglec15 binding was detected by adding 25 uL of anti-hFc HRP diluted at 1:5000 in 1×PBST. In between each step, the plate was washed 3 times with 1×PBST in a plate washer. The plate was then developed with 20 ul of TMB substrate for 5 mins and stopped by adding 20 ul of 2N sulfuric acid. The plate was read at OD450 nm Biotek plate reader and then plotted in Prism 8.1 software. Similar binding experiments were done for mouse Siglec15 and cyno Siglec15 to check the cross activity of the IgG antibodies to those two species.

Assay [2] addresses T2, rcynoSiglec15 His (cyno, UniProt A0A2K5UY47 20-262).
T2 construct: not shown: His tag
T2 sequence: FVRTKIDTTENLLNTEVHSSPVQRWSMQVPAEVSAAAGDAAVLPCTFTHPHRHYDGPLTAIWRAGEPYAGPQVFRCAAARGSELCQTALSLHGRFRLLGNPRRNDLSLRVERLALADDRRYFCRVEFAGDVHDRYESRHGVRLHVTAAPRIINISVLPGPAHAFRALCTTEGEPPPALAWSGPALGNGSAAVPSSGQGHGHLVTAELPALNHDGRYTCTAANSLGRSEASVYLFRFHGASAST
Described as above. How it is done: as §1

Assay [3] addresses T3, rmouseSiglec15 His (mouse, UniProt A7E1W8 20-262).
T3 sequence: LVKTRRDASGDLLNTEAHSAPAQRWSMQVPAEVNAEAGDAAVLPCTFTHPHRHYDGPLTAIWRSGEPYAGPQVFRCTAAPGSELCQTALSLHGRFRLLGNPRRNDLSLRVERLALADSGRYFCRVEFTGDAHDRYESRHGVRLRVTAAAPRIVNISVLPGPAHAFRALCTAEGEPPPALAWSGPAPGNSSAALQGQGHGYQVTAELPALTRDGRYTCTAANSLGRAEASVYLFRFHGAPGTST
The assay is described as above. As to the method: as §1

For assay [4], the target named is T1, human Siglec 15-HIS tagged recombinant …. Description: SPR Biacore T200; IgG captured on Protein A chip, Siglec15-HIS as analyte. How it is done: Kinetic analysis of anti-Siglec15 IgG was assessed by SPR technology with Biacore T200. The assay was run with Biacore T200 control software version 2.0. For each cycle, 1 ug/mL of anti-Siglec15 IgG was captured for 60 seconds at flow rate of 10 ul/min on flow cell 2 in 1× HBSP buffer on Protein A sensor chip. 2-fold serial human Siglec15-HIS tagged protein was injected onto both reference flow cell 1 and anti-Siglec15 IgG captured flow cell 2 for 150 seconds at flow rate of 30 ul/mins followed by wash for 300 seconds. The flow cells were then regenerated with Glycine pH2 for 60 seconds at flow rate of 30 ul/mins. 8 concentration points from 100-0 nM were assayed per anti-Siglec15 IgG in a 96 well plate. The kinetics of Anti-Siglec15 IgG binding to Siglec 15 protein was analyzed with Biacore T200 evaluation software version 3.0. The specific binding response unit was derived from subtraction of binding to reference flow cell 1 from antibody captured flow cell 2.
For orientation: SPR reads the build-up and loss of mass on a sensor chip optically.

The target of assay [5] is T4, full-length human Siglec15 with C-terminal flag and Myc tags on HEK293 cells (human, UniProt Q6ZMC9 20-328).
T4 construct: whole, on cells; also called Siglec15/HEK293; HEK293-Siglec 15; not shown: C-terminal flag and Myc tags from pCMV6-Entry vector
T4 sequence (looked up): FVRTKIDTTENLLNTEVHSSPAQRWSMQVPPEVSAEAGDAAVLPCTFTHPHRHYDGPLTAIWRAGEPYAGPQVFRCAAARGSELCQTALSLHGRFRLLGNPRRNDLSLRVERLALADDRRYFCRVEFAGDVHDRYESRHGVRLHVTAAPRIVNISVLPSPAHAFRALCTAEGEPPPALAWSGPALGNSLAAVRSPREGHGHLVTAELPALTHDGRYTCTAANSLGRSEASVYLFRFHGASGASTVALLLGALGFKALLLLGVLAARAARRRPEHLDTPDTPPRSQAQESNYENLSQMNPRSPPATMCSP
In words: FACS on Siglec15/HEK293 cells, IgG, anti-hFc Alexa fluor 647.

For assay [6], the target named is T5, human Siglec15-Fc fusion protein (human, UniProt Q6ZMC9 20-263).
T5 construct: Bought protein (Acro #SG5-H5253 is named for the selection); also called recombinant Siglec 15-Fc fusion protein (Acro #SG5-H5253); human Siglec15-Fc protein; not shown: Fc part of the bought fusion protein
T5 sequence (looked up): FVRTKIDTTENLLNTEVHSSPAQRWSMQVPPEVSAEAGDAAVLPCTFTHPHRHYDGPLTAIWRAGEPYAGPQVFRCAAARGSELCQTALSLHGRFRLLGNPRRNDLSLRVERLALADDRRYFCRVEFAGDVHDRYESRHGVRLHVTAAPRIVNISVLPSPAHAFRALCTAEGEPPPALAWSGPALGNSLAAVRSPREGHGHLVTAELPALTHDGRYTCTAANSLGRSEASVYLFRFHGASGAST
Description: SPR Biacore T200; Siglec15-Fc captured on Protein A chip, scFv as analyte. As to the method: Kinetic analysis of anti-Siglec15 scFvs were assessed by SPR technology with Biacore T200. The assay was run with Biacore T200 control software version 2.0. Protein A sensor chip was used to capture Fc fusion protein in the assay. For each cycle, 1 ug/mL of human Siglec15-Fc protein was captured for 60 seconds at flow rate of 10 ul/min on flow cell 2 in 1× HBSP buffer on Protein A sensor chip. 2-fold serial diluted HIS tag purified anti-Siglec15 scFv was injected onto both reference flow cell 1 and Siglec 15-Fc captured flow cell 2 for 150 seconds at flow rate of 30 ul/min followed by wash for 300 seconds. The flow cells were then regenerated with Glycine pH 2 buffer (GE) for 30 seconds at flow rate of 30 ul/mins. 8 concentration points from 300-0 nM was assayed per anti-Siglec15 scFv in a 96 well plate. The kinetics of scFvs binding to Siglec 15 protein was analyzed with Biacore T200 evaluation software version 3.0. The specific binding response unit was derived from subtraction of binding to reference flow cell 1 from Siglec15 captured flow cell 2.

In assay [7] the target is T4, full-length human Siglec15 with …. Description: FACS on Siglec15/HEK293 cells, scFv, anti-His detection. As to the method: […] Cells were spun down at 1200 rpm for 5 minutes at 4° C. to remove primary antibodies. Cells were then washed once with 200 uL of full medium per well. Samples were detected with premixed anti-His Biotin Streptavidin Alexa fluor 647 by adding 100 uL of diluted secondary antibody and incubated at 4° C. for 30 minutes in the dark. Samples were spun down at 1200 rpm for 5 minutes at 4° C. and washed twice with 200 uL of 1×PBS per well. Samples were then reconstituted in 200 uL of 1×PBS and read on Attune NxT cytometer. Analysis was performed using Attune NxT software plotting the overlaying the histogram of anti-Siglec15 scFvs binding onto both negative and target cell lines.

The target in assay [8] is T5, human Siglec15-Fc fusion protein. Description: ELISA; Siglec15-Fc captured by anti-hFc, scFv titrated, anti-Flag HRP. As to the method:
An ELISA assay was developed to determine the EC50 of anti-Siglec15 antibodies. Briefly, a 384 well plate was immobilized with anti-human Fc antibody at final concentration of 2 ug/mL in 1×PBS in total volume of 25 uL per well. The plate was incubated overnight at 4° C. followed by blocking with 80 uL of superblock per well for 1 hour. Human Siglec 15-Fc was captured through immobilized anti-hFc antibody. Purified anti-Siglec 15 scFvs were 2-fold serial titrated from 200 nM. 25 uL was added to human Siglec15 immobilized wells and incubated for 1 hour with shaking. The Siglec15 binding was detected by adding 25 uL of anti-Flag HRP diluted at 1:5000 in 1×PBST. In between each step, the plate was washed 3 times with 1×PBST in a plate washer. The plate was then developed with 20 uL of TMB substrate for 5 mins and stopped by adding 20 uL of 2 N sulfuric acid. The plate was read at OD450 nm Biotek plate reader and then plotted in Prism 8.1 software.
(In general: An ELISA detects its analyte on a solid surface through an enzyme-linked reagent.)

B1: 2019EP47-A10 IgG (antibody, V domains shown)
VH: QMQLVQSGGGVVQPGRSLRLSCAASGFTFSSYGMHWVRQAPGKGLEWVAVISYDGSNKYYADSVKDRFTISRDNSKNTLYLQMNSLRAEDTAVYYCAKDIVGDSGSYPIYYYYGMDVWGQGTTVTVSS
VL: SQSALTQPHSVSESPGKTVTISCTRSSGSIASNYVQWYQQRPGSAPSTVIYEDNQRPSGVPDRFSGSVDISSNSASLTISGLQTEDEADYYCQSYDNDNMVFGGGTKLTVL
notes: IgG form expressed in ExpiHEK293-F cells; detected with anti-hFc
In the case of B1, the results for the EC50 in assay [1], in assay [2] and in assay [3] were 0.119 nM, 0.171 nM and 0.109 nM, respectively. Besides, in assay [4], the Kd is 3.8 nM. In addition, in assay [4], the off-rate constant (koff) stood at 0.000368 s⁻¹.

B2: 2019EP47-A02 IgG (antibody, V domains shown)
VH: EVQLVQSGGGVVQPGRSLRLSCAASGFTFSSYAMHWVRQAPGKGLEWVAVISYDGSNKYYADSVKGRFTISRDNSKNTLYLQMNSLRAEDTAVYYCARSRYSSSLRRYYGMDVWGQGTTVTVSS
VL: AIQLTQSPSSLSASVGDRVTITCQATHDIANYLNWYQQKPGKAPKLLIYAASNLETGVPSRFSGSGSGTDFTFAISSLQPEDIAVYYCQQYDNLPLTFGGGTKVEIK
notes: as for B1
For the molecule B2, the EC50 in assay [1] was determined as 0.0289 nM. In assay [5], the EC50 turned out to be 0.35 nM. Also, in assay [4], the equilibrium dissociation constant (Kd) amounted to 2.4 nM and the koff turned out to be 0.000311 s⁻¹.

B3: 2020EP032-H11 IgG (antibody, V domains shown)
VH: EVQLVESGGGLVKPGGSLRLSCAASGFTFSSYSMNWVRQAPGKGLEWVSSISSSSSYIYYADSVKGRFTISRDNAKNSLYLQMNSLRAEDTAVYYCARDYRGYSGQNYYGMDVWGQGTTVTVSS
VL: QSALTQPPSVSAAPRQKVTISCSGSSSNIGNNDVSWYQQLPGTVPKLLIYDNNKRPSGIPDRFSGSKSGTSASLGITGLQTGDEADYYCGVWDSSLSGYVFGTGTKVTVL
notes: IgG form expressed in ExpiHEK293-F cells; detected with anti-hFc; also called 2020EP32-H11; H11 mAb
Turning to B3, the EC50 in assay [1] was found to be 0.0228 nM; in assay [2] it was 0.0258 nM; in assay [3], 0.0105 nM; in assay [5], 0.022 nM.

B4: 2020EP032-H11 scFv (scFv, V domains shown)
VH: EVQLVESGGGLVKPGGSLRLSCAASGFTFSSYSMNWVRQAPGKGLEWVSSISSSSSYIYYADSVKGRFTISRDNAKNSLYLQMNSLRAEDTAVYYCARDYRGYSGQNYYGMDVWGQGTTVTVSS
VL: QSALTQPPSVSAAPRQKVTISCSGSSSNIGNNDVSWYQQLPGTVPKLLIYDNNKRPSGIPDRFSGSKSGTSASLGITGLQTGDEADYYCGVWDSSLSGYVFGTGTKVTVL
notes: Tested as a single-chain scFv made in E. coli with a C-terminal flag and 6x His tag
In assay [6], B4 showed a Kd of 0.557 nM, a koff of 0.000316 s⁻¹ and a kon of 567000 M⁻¹ s⁻¹. Moreover, the response in assay [7] was half-maximal at 10.6 nM (EC50). In assay [8], the EC50 was determined as 0.567 nM.

B5: 2020EP032-B03 IgG (antibody, V domains shown)
VH: QVQLQQWGAGLLKPSETLSLTCAVYGGSFSGYYWSWIRQPPGKGLEWIGEINHSGSTNYNPSLKSRVTISVDTSKNQFSLKLSSVTAADTAVYYCARGPLRKYYDFWSGSRNYYYYGMDVWGQGTTVTVSS
VL: QPVLTQDPAVSVALGQTVRITCQGDSLRSNYASWYQLKPGQAPVLVIYDKNNRPSGIPDRFSGSNSGNTASLTIAGAQAEDEADYYCTSRDSSGTVFGGGTKLTVL
notes: IgG form expressed in ExpiHEK293-F cells; detected with anti-hFc; also called 2020EP32-B03
Turning to B5, the EC50 in assay [1] is 0.527 nM; in assay [2], 1.21 nM; in assay [3] it was 0.248 nM; in assay [5] it was 1.92 nM.

The EC50 is the concentration needed to bring the measured effect to its halfway point. In general, Kd refers to the equilibrium constant for the complex coming apart. As a reminder, the koff is the first-order rate constant of dissociation. As a reminder, the kon is the second-order rate constant of association.

The values above are taken from patent publication US20240336683A1 (published 2024).
